According to patent US20050058649A1 (published 2005):

T1: phospholipase A2 (PLA2) (Homo sapiens (Human), UniProt O15496 43-165)
T1 construct: PLA2 as used in Biacore, MCAB binning, peptide scan and the purified-antibody functional assay; also called PLA2 antigen
T1 sequence: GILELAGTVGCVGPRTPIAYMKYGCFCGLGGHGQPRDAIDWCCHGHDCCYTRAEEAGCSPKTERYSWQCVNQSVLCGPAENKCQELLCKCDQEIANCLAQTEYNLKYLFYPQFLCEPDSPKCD

B1: anti-PLA2 mAb 2.7 (antibody, IgG4, V domains shown)
VH: GVQLVQSGAEVKKPGESLKISCKGSGYSFTNYWIGWVRQMPGKGLEWMGIIYPGDSDTRYSPSFQGQVTISADKSISTAYLQWSSLKASDTAIYYCARGGVGAFDIWGQGTMVTVSS
VL: EIVLTQSPGTLSLSPGERATLSCRASQIIRRSSLAWYQEKPGQAPRLLIYGASSRATGIPDRFSGSGSGTDFTLTISRLEPEDFAVYYCQQYGSSPPFTFGPGTKVDIKR
notes: also called 2.7.1
B2: anti-PLA2 mAb 2.19 (antibody, IgG4, V domains shown)
VH: QVQLVESGGGVVQPGRSLRLSCAASGFTFSSYGMHWVRQAPGKGLEWVAAIWYDGSNKWYADSVKGRFTISRDNSKNTLYLQMNSLRAEDTAVYYCARGGTGTPGAFDIWGQGTMVTVSS
VL: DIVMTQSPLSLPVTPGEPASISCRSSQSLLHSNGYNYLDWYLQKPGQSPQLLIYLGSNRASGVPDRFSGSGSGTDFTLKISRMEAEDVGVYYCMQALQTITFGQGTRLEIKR
notes: also called 2.19.1
B3: anti-PLA2 mAb 2.15 (antibody, IgG4, V domains shown)
VH: QVQLVESGGGVVQPGRSLRLSCAASGFTFSSYGMHWVRQAPGKGLEWVAVIWYDGSNKYYADSVKGRFTISRDNSKNTLYLQMNSLRAEDTAVYYCARRDWNYAFDIWGQGTMVTVSS
VL: DIQMTQSPSSLSASVGDRVTITCRASQSISNYLNWYQQKPGKAPKFLIYAASSLQSGAPSRFSGSGSGTDFTLTISSLQPEDFATYYCQQSYSTPITFGQGTRLEIKR
B4: anti-PLA2 mAb 2.23 (antibody, IgG4, V domains shown)
VH: QVQLEESGGGVVQPGRSLRLSCAASGFTFSSYGMHWVRQGPGKGLEWVAVIWYDGSNKKYADSVKGRFTISRDNSKNTLYLQMNSLRAEDTAVYYCARDGPIFGVVMGYWGQGTLVTVSS
VL: DIQMTQSPSSLSASVGDRVTITCRTSQSISNYLNWFQQKPGKAPILLIYAASSLQSGVPSRFSGSGSGTDFTLTISSLQPEDFATYYCHQSYSIPITFGQGTRLEIKR
B5: anti-PLA2 mAb 1.27 (antibody, IgG2, V domains shown)
VH: EVQLVQSGAEVKKPGESLKISCKGSGYSFTSYWIGWVRQMPGKGLEWMGIIYPGDSDTRYSPSFQGQVTISADKSISTAYLQWSSLKASDTAMYYCARSWTYGMDVWGQGTTVTVSS
VL: EIVLTQSPGTLSLSPGERATLSCRASQSVRSNYLTWYQQKPGQAPRLLIYGASTRATGIPDRFSGSGSGTDFTLTISRLEPEDFAVYYCQQYGSSPLTFGGGTKVEIKR
B6: anti-PLA2 mAb 1.14 (antibody, IgG2, V domains shown)
VH: EVQLVQSGAEVKKPGESLKISCKGSGYSITSYWIGWVRQMPGKGLEWMGIIYPGDSDTRYSPSFQGQVTISADKSISTAYLQWSSLKASDTAMYYCARHSGSSFDYWGQGTLVTVSS
VL: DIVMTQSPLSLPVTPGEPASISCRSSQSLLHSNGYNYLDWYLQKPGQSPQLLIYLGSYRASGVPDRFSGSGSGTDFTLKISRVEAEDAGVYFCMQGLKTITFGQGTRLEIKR
B7: anti-PLA2 mAb 1.7 (antibody, IgG2, V domains shown)
VH: EVQLVQSGAEVKKPGESLKISCKGSGYSFISYWIGWVRQMPGKGLEWMGIIYPGDSDTRYSPSFQGQVTISADKSISTAYLQWSSLKASDTAMYYCARSWTYALDVWGQGTAVTVSS
VL: EIVLTQSPGTLSLSPGERATLSCRPSQSVRSNYLTWYQQKPGQAPRLLIYGASTRATGIPDRFSGSGSGTDFTLTVSRLEPEDFAVYYCQQYGSSPLTFGGGTKVEIKR
notes: also called 1.7.1
B8: anti-PLA2 mAb 1.5 (antibody, IgG2, V domains shown)
VH: EVQLVQSGAEVKKPGESLKISCKGSGYSFISYWIGWVRQMPGKGLEWMGIIYPGDSDTRYSPSFQGQVTISADKSISTAYLQWSSLKASDTAMYYCARHWSYGMDVWGQGTTVTVSS
VL: EIVLTQSPGTLSLSPGERATLSCRASQSVRSGYLAWYQQRPGQAPRFLIYGASSRATGIPDRFSGSGSGTDFTLTISRLEPEDFAVYYCQQYGSSPLTFGGGTKVEIKR
notes: also called 1.5.1
B9: anti-PLA2 mAb 1.18 (antibody, IgG2, V domains shown)
VH: EVQLVQSGAEVKKPGESLKISCKGSGYSFTNYWINWVRQMPGKGLEWMGIIYPGDSDTRYSPSFQGQVTISADKSISTAYLQWSSLKASDTAMYYCARHRLGFDYWGQGTLVTVSS
VL: DIQMTQSPSSLSASVGDRVTITCRASQGIRNDLDWCQQKPGKAPKRLIYAASSLQSGVPSRFSGSGSGTEFTLTISSLQPEDFATYYCLQHNNYPPTFGQGTKVEIKR
B10: anti-PLA2 mAb 1.21 (antibody, IgG2, V domains shown)
VH: EVQLVQSGAEVKKPGESLKISCKGSGYRFTSYWISWVRQMPGKGLEWMGIIYPGDSDTRYSPSFQGQVTISADKSISTAYLQWSSLKASDTAMYYCARHREAFDIWGQGTMVTVSS
VL: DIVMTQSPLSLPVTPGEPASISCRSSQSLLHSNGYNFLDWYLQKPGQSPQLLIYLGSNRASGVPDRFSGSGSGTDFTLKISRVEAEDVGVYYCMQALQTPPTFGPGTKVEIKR

Legend:
[1] = biological target: T1, phospholipase A2 (PLA2); test: Biacore 2000, captured Ab, global 1:1 fit
Experimental: (§1) In the immobilization, HBS-P was used as the running buffer; in the binding studies, HBS-P, with 12 mg/mL of each BSA and dextran, was used as sample and running buffers.
Data were normalized based on the individual antibody capture levels and fit globally to a 1:1 interaction model.

[2] = biological target: T1, phospholipase A2 (PLA2); test: Biacore 2000, Ab captured from supernatant, 300 nM PLA2
Experimental: as §1
Briefly, antibody supernatants were diluted 1/10 and antibodies were captured individually on the IgG surfaces. After a one-minute wash step, buffer and PLA2 (300 nM) were injected serially (one-minute association, five minute dissociation) over each surface. Capture levels were measured from −20 to 0 seconds and the surfaces were regenerated with a 6-second pulse of 100 mM H₃PO₄.

[3] = biological target: T1, phospholipase A2 (PLA2); test: cell-based or functional assay

Binder | Kd [1] | koff [1] | kon [1] | Response [2] | IC50 of inhibition of PLA2 enzyme activity (12-point dose curve) [3]
B1 | 10 nM | 0.00104 s⁻¹ | 99600 M⁻¹ s⁻¹ | 126 RU | 
B2 | 6.2 nM | 0.000115 s⁻¹ | 18600 M⁻¹ s⁻¹ | 52 RU | 
B3 | 100 nM | 0.000902 s⁻¹ | 8880 M⁻¹ s⁻¹ | 37 RU | 14.3 nM
B4 | 120 nM | 0.000969 s⁻¹ | 8270 M⁻¹ s⁻¹ | 7 RU | 14.4 nM
B5 | 27 nM | 0.000922 s⁻¹ | 34500 M⁻¹ s⁻¹ | 78 RU | 9.4 nM
B6 | 18 nM | 0.000791 s⁻¹ | 43900 M⁻¹ s⁻¹ | 74 RU | 3.9 nM
B7 | 9.5 nM | 0.000451 s⁻¹ | 47400 M⁻¹ s⁻¹ | 118 RU | 4.73 nM
B8 | 15 nM | 0.000713 s⁻¹ | 48700 M⁻¹ s⁻¹ | 70 RU | 2.36 nM
B9 | 50 nM | 0.00192 s⁻¹ | 38600 M⁻¹ s⁻¹ | 6 RU | 0.78 nM
B10 | 11 nM | 0.00063 s⁻¹ | 57100 M⁻¹ s⁻¹ | 61 RU | 3.64 nM
